Values belong to the molecule of their own block, whether it stands above or below them.
B1: Rpn13 extreme C-terminal pentapeptide (DMSLD; residues 403-407) (peptide)
peptide: DMSLD
notes: also called DMSLD peptide; DMSLD pentapeptide; source: synthetic peptide, bought: Alta BioScience (Birmingham, UK)
B3: TPR domain of SGTA (small, glutamine-rich, tetratricopeptide repeat protein alpha), residues 84-211 (domain or fragment, human, UniProt O43765 84-211, looked up)
chain: SEEDSAEAERLKTEGNEQMKVENFEAAVHFYGKAIELNPANAVYFCNRAAAYSKLGNYAGAVQDCERAICIDPAYSKAYGRMGLALSSLNKHVEAVAYYKKALELDPDNETYKSNLKIAELKLREAPS
notes: human SGTA, central TPR domain, residues 84-211; 15N-labelled (M9 medium) where it was the observed species in NMR; unlabelled otherwise; not shown: thioredoxin A (TxA), N-terminal, cleaved; His6, N-terminal, cleaved

What was measured:
[1] = target: SGTA-V5 (UniProt O43765)
Chain of SGTA-V5 (O43765 whole entry): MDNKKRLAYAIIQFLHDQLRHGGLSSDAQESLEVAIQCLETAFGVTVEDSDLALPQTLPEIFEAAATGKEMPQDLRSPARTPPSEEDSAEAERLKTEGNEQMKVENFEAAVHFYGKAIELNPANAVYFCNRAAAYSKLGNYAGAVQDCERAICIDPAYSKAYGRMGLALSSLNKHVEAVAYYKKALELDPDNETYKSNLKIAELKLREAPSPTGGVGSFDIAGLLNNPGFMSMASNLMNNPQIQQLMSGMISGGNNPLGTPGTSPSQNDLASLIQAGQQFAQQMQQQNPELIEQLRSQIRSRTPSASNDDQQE

[2] = target: B3; test: ITC; SGTA_TPR at 1 mM injected into Rpn13 or DMSLD peptide at 50 μM in the cell; 25 °C, 10 mM potassium phosphate pH 6.0, 100 mM NaCl, 250 μM TCEP; one site assumed (n = 1); settings: both partners purified
[3] = target: T1, TPR domain of SGTA (SGTA_TPR) (Homo sapiens, UniProt O43765); test: Size exclusion chromatography (SEC) complex formation with SGTA_TPR; assay type: binding; settings: mixed in 1:1 molar ratio
T1 construct: thioredoxin A (TxA) fusion (N, cleaved yes); hexahistidine tag (N, cleaved yes); made in house; host or cells: E. coli BL21(DE3) Rosetta
Experimental: In order to understand molecular details underlying the interaction between SGTA and Rpn13, solution NMR studies were carried out on excised domains of SGTA and Rpn13 guided by earlier mapping studies. Reciprocal chemical shift perturbation (CSP) experiments were performed by titrating unlabelled Rpn13 C-terminal domain (residues 260–407; hereafter described as Rpn13_260-407) into ^15N-labelled TPR domain of SGTA (residues 84–211; hereafter referred to as SGTA_TPR) and vice versa. Assignments of backbone amide resonances were obtained from the BMRB (accession numbers 5709 and 17286, for SGTA_TPR and Rpn13_260-407, respectively). The ^1H-^15N HSQC spectra of both SGTA_TPR and Rpn13_260-407 show binding in a fast exchange regimen (Figs 1A and 2A). […] Binding was further confirmed by size-exclusion chromatography (SEC) and isothermal titration calorimetry (ITC) (Fig. 1C,D). […]
SGTA_TPR and Rpn13 plasmids were transformed into E. coli BL21(DE3) Rosetta cells, with protein expression induced by adding 0.3–0.5 mM isopropyl-β-D-thiogalactopyranoside (IPTG) to bacterial cultures in LB media at OD600 ≈ 0.8, followed by overnight incubation at 18 °C. […] Proteins were concentrated using Vivaspin concentrators (Sartorius Stedin) and sample purity and homogeneity was assessed by SDS-PAGE, mass spectrometry and NMR. […]

[4] = target: T1, TPR domain of SGTA (SGTA_TPR); test: Solution NMR CSP titration of unlabelled ligand into 15N-labelled SGTA_TPR; assay type: binding; settings: unlabelled ligand into 15N-labelled SGTA_TPR; pH 6.0, 25 °C; Rpn13_260-407 up to 8 equivalents, Rpn13_260-402 up to 6-fold molar excess
Experimental: In order to understand molecular details underlying the interaction between SGTA and Rpn13, solution NMR studies were carried out on excised domains of SGTA and Rpn13 guided by earlier mapping studies. Reciprocal chemical shift perturbation (CSP) experiments were performed by titrating unlabelled Rpn13 C-terminal domain (residues 260–407; hereafter described as Rpn13_260-407) into ^15N-labelled TPR domain of SGTA (residues 84–211; hereafter referred to as SGTA_TPR) and vice versa. Assignments of backbone amide resonances were obtained from the BMRB (accession numbers 5709 and 17286, for SGTA_TPR and Rpn13_260-407, respectively). The ^1H-^15N HSQC spectra of both SGTA_TPR and Rpn13_260-407 show binding in a fast exchange regimen (Figs 1A and 2A). […] Binding was further confirmed by size-exclusion chromatography (SEC) and isothermal titration calorimetry (ITC) (Fig. 1C,D). […] ITC experiments yield a dissociation constant of 16.1 ± 1.4 μM in keeping with the value obtained from NMR.
Protein samples at concentrations between 300 μM and 1 mM were prepared in 10% D2O (Sigma Aldrich), 10 mM potassium phosphate pH 6.0, 100 mM NaCl and 250 μM TCEP buffer (with 10 μM DSS for proton chemical shift referencing). All NMR experiments were acquired in 5 mm NMR tubes at 25 °C on 500 MHz and 700 MHz Bruker Avance spectrometers equipped with cryoprobes and operated by the TopSpin 3.1 software package. All NMR spectra were processed with TopSpin and analysed with CcpNMR Analysis[35]. Proteins used for NMR titrations were dialysed overnight against the same buffer (10 mM potassium phosphate pH 6.0, 100 mM NaCl and 250 μM TCEP) and mixed in different molar ratios, with the concentration of the labelled protein maintained constant. ^1H-^15N HSQC experiments were recorded for each titration point at 25 °C. Chemical shift perturbation (CSP) values were calculated for each amide signal using the following formula: […]
where Δδ1H and Δδ15N are the chemical shift differences for the same amide in its free and bound state (δfree−δbound) and for proton and nitrogen chemical shift values respectively. […]

[5] = target: T1, TPR domain of SGTA (SGTA_TPR); test: Isothermal titration calorimetry (ITC), SGTA_TPR titrated into Rpn13 or DMSLD peptide; assay type: binding; settings: 20 injections of 2 μL of 1 mM SGTA_TPR into 50 μM Rpn13_260-402, pH 6.0, 25 °C
Experimental: ITC experiments were performed using an ITC-200 microcalorimeter from Microcal (GE Healthcare) at 25 °C following the standard protocol as reported previously. Proteins or peptide samples were prepared in 10 mM potassium phosphate pH 6.0, 100 mM NaCl, 250 μM TCEP. In each titration, either 40 injections of 1 μL or 20 injections of 2 μL of SGTA_TPR each, at a concentration of 1 mM, were added to a sample of Rpn13 or the Rpn13 derived DMSLD peptide at a concentration of 50 μM in the reaction cell. A nonlinear least-squares minimization algorithm was applied to integrated heat data obtained for the titrations, corrected for heats of dilution, in order to fit the experimentally obtained values to a theoretical titration curve. This was performed using the MicroCal-Origin 7.0 software package. ΔH (reaction enthalpy change in kcal/mol), Kb (equilibrium binding constant in per molar), and n (molar ratio between the proteins in the complex) were used as fitting parameters. The reaction entropy, ΔS, was calculated using the relationships ΔG = −RT lnKb (R = 8.314 J/(mol K), T 298 K) where ΔG = ΔH − TΔS. Dissociation constants (Kd) have been determined for each interaction. Binding was assumed to be at one site (n = 1), to determine the binding affinity (Kd) and thermodynamic parameters.

[6] = target: T2, spin labelled K398C Rpn13_(260-407) mutant (human, UniProt Q16186 260-407, K398C, paramagnetic MTSL or diamagnetic dMTSL label incorporated via the K398C cysteine); test: NMR paramagnetic relaxation enhancement; 15N-labelled SGTA_TPR mixed with MTSL or dMTSL labelled K398C Rpn13_(260-407) at a 1:1.2 ratio, 200 μM; 10 mM potassium phosphate pH 6.0, 100 mM NaCl; 1H-15N HSQC; settings: both partners purified
T2 construct: The paramagnetic and the diamagnetic sample are written as one molecule: the PRE read-out is the ratio of the two; source: E. coli BL21(DE3) Rosetta, purified, then labelled with MTSL or dMTSL; not shown: thioredoxin A (TxA), N-terminal, cleaved; His6, N-terminal, cleaved

[7] = target: B1; test: ITC; SGTA_TPR at 1 mM injected into Rpn13 or DMSLD peptide at 50 μM in the cell; 25 °C, 10 mM potassium phosphate pH 6.0, 100 mM NaCl, 250 μM TCEP; one site assumed (n = 1); settings: both partners purified
[8] = target: T3, Rpn13 C-terminal domain, residues 260-407 (human, UniProt Q16186 260-407); test: as above; settings: both partners purified
T3 construct: 15N-labelled where it was the observed species in NMR; unlabelled otherwise; not shown: thioredoxin A (TxA), N-terminal, cleaved; His6, N-terminal, cleaved

[9] = target: T3, Rpn13 C-terminal domain, residues …; test: NMR titration; 1H-15N HSQC chemical shift perturbation; unlabelled SGTA_TPR (wild type or K160E/R164E) titrated into 15N-labelled Rpn13_(260-407); 25 °C, 10 mM potassium phosphate pH 6.0, 100 mM NaCl, 250 μM TCEP; settings: both partners purified

Molecule: B1
Kd [2]: 71.9 ± 13.3 µM

Molecule: B3
binding result [6]: binds | dH [7]: -4.97 ± 0.41 kcal/mol | Kd [8]: 16.1 ± 1.4 µM | dH [8]: -3.37 ± 0.08 kcal/mol | Kd [9]: 3.27 ± 0.87 µM

More lines, main results first:

fold increase of steady state OP91 level (quantitative western blot) in HeLa TRex Flp-In cells co-expressing SGTA-V5 and Rpn13 (150-402), against the Rpn13 (150-407) control [1]: 3 fold
Molecule: FLAG tagged mouse Rpn13 (150-402) (from UniProt Q9JKV1 150-402) (domain or fragment)

ITC binding, result in words [5]: abrogation of binding with SGTA_TPR | ITC binding, result in words ([5]; listed as Rpn13260-402): does not interact
B2: Rpn13_260-402: Rpn13 construct devoid of the C-terminal pentapeptide (residues 260–402) (protein)
chain: QPIQLSDLQSILATMNVPAGPAGGQQVDLASVLTPEIMAPILANADVQERLLPYLPSGESLPQTADEIQNTLTSPQFQQALGMFSAALASGQLGPLMCQFGLPAEAVEAANKGDVEAFAKAMQNNAKPEQKEGDTKDKKDEEE
modifications: left off: thioredoxin A (TxA), N-terminal, cleaved | His6, N-terminal, cleaved
SEC complex formation with SGTA_TPR [3]: no evidence of an interaction | CSP of SGTA_TPR backbone amide signals, result in words [4]: no perturbation of SGTA_TPR backbone amide signals
